Test results: PMC2796168

Tests used:
CCL3 (Homo sapiens) = CCL3 (Homo sapiens) (UniProt P10147); conditions: cited from earlier work
CCL4 (Homo sapiens) = CCL4 (Homo sapiens) (UniProt P13236); conditions: cited from earlier work
CCL18 (Homo sapiens) = CCL18 (Homo sapiens) (UniProt P55774); conditions: cited from earlier work
[1] = target: non-glycosylated Evasin-1 (Rhipicephalus sanguineus) (UniProt P0C8E7); assay: crystal structure; complex of non-glycosylated Evasin-1 and ΔAla1-CCL3 (A10T), formed overnight at 4°C at a molar ratio of 1:2.5, captured on Ni-NTA; crystals in 24% PEG 3350, 0.2 M ammonium sulphate, 0.1 M HEPES pH 8.1; 1.9 Å
Sequence of non-glycosylated Evasin-1 (Rhipicephalus sanguineus) (P0C8E7 21-114): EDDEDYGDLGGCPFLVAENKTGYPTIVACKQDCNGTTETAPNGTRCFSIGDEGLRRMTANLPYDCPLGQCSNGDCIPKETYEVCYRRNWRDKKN

Sequence of Evasin-1 (P0C8E7 21-114): as above
Sequence of CCL3 (Homo sapiens) (P10147 24-92): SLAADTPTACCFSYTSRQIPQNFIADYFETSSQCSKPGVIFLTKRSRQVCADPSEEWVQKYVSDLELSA
Sequence of CCL4 (Homo sapiens) (P13236 24-92): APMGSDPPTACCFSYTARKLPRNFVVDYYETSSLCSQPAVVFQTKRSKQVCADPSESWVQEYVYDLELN
Sequence of CCL18 (Homo sapiens) (P55774 24-89): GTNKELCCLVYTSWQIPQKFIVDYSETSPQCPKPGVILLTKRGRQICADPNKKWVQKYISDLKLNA

## Evasin-1 (from UniProt P0C8E7)
CCL3 (Homo sapiens)
  Kd: 0.16 nM
CCL4 (Homo sapiens)
  Kd: 0.81 nM
CCL18 (Homo sapiens)
  Kd: 3.2 nM

## ΔAla1-CCL3 (A10T) (ligand)
[1]
  stoichiometry N: 1
